{"source": "patent US20200138870A1", "about": "“RECREATION OF PANCREATIC NICHE ALLOWS FOR NOVEL METHODS FOR HUMAN, MATURE BETA DERIVATION FROM PLURIPOTENT STEM CELLS” (Baylor College of Medicine, priority 2016, published 2020)", "type_in_all_cases": "cell-based, human", "key": {"[1]": {"system": "EPs", "experiment": "Scratch assay (cell migration)", "settings": "100 or 500 ng/ml WNT5A, 30h", "description": "EPs were dissociated and seeded into 12 well-plate to reach 90% confluence before a scratch was made. 200 μl pipette tip was used to create a smooth scratch and followed by 3h of mitomycin C treatment. Cells were then washed thrice with PBS and B27 media with or without WNT5A was added. Pictures of the scratch wound were taken at 0, 6, 12, 18, 24 and 30h after scratch to observe cell migration. Pictures were analyzed by counting cells migrating into the gap using ImageJ."}, "[2]": {"system": "hESC-derived EPs", "experiment": "Growth factor treatment of hESC-derived EPs for 3 days, immunofluorescence quantification of marker-positive cells", "description": "hESC, ISL1-EGFP Hues8 and H1, were maintained under a feeder-free system on Geltrex (Invitrogen) in TeSR-E8 media (Stemcell Technologies). Cells were passaged at 70-80% confluence using TrypLE (Invitrogen). After dissociation, cells were seeded in TeSR-E8 media+10 μM Y-27632 for 24h. Differentiation was started when cells were 90% confluent. The following media and growth factors/small molecules (see also Table 3) were used: Day1: MCDB-131 media with 0.1% BSA+10 mM glucose+ActivinA and CHIR99021. Day2-3: MCDB-131 media+0.1% BSA+10 mM glucose+ActivinA. Day4-5: MCDB-131+0.1% BSA, 10 mM glucose, VitC+KGF. Day6-9: MCDB-131 2% BSA+5.5 mM glucose+Vit.C+ITS (Invitrogen)+ActivinA+KGF+RA+SANT-1+Noggin. Day10-12: MCDB-131+2% BSA+5.5 mM glucose+VitC+ITS+SANT-1+Noggin+PdBU. Day13-15: MCDB-131+2% BSA+5.5 mM glucose+VitC+ITS+Noggin+AlK5i. EPs were dissociated and seeded as 25,000 cells/well on Geltrex-coated 96-well plates in DMEM media (Invitrogen) with B27 Supplement (Thermo Fisher Scientific), later called B27 media, supplemented with 10 µM Y-27632 for 24h. Growth factors (Table 3) were added to B27 media, at two concentrations, and tested on EPs for 3 days. After 3 days, cells were PBS washed, fixed with 4% PFA/PBS for 20 min at room temperature (RT), washed twice with PBS and stained.\nCells were incubated with 5% donkey serum (Jackson ImmunoResearch Laboratories) in PBST (PBS+0.1% Triton-X) for 30 min to avoid nonspecific binding of the antibody and to permeabilize the cells. Primary antibodies, diluted in 5% donkey serum in PBST, were then added and incubated at 4° C. overnight with shaking. After primary antibody incubation, cells were washed 3 times with PBST and secondary antibodies conjugated with Alexa-Fluor Dyes (Jackson ImmunoResearch Laboratories) and diluted in 5% donkey serum in PBST were added to the cells for 30 min at RT. Then, cells were thrice washed with PBST and nuclei were stained with Dapi (Roche Diagnostics). For imaging, Leica DMI6000 or confocal Leica TCS SPE was used. Images were initially processed by LAS X software and then further analyzed and quantified using ImageJ software (NIH, W Rasband, http://rsb.info.nih.gov/ij) using cell counter plug-in. Typically, at least 5 randomly selected images were counted per condition."}, "[3]": {"system": "Smad", "experiment": "Dual-pathway multicolor luciferase assay, Smad reporter", "settings": "500 ng/ml WNT5A, at 36 and 48h", "source_text": "The dual-pathway luciferase reporter vector was generated using the GoldenBraid2.0 Assembly Platform (Sarrion-Perdigones et al., 2011; Sarrion-Perdigones et al., 2013). Briefly, transcriptional units comprising the promoter elements, the CDS of the corresponding luciferase and the bovine growth hormone terminator were first assembled, and then these were latter combined in successive rounds of assembly to build the multigenic vector used in this assay. For the multicolor luciferase assay, H1-derived EPs were first dissociated into 96-well plates using method previously described and incubated overnight to allow cell attachment. […] At the determined harvesting point, culture media was removed and wells were washed with PBS. […] 10 μL of LARII reagent was added with the built-in injectors and after 2 seconds, the total light and the BP filtered light emitted by the FLuc and RedF mixture were measured for 1 second. Finally, 15 μL of Stop & Glo® reagent were injected and after 4 seconds the emitted light by Renilla luciferase was measured. The activity corresponding to FLuc and RedF that were simultaneously measured after the LARII reagent was added were calculated according to the method proposed by Nakayima et al (Nakajima et al., 2005) that is adjusted to this particular assay and explained in FIG. 7D."}, "[4]": {"system": "canonical β-catenin-dependent pathway", "experiment": "TOPFLASH reporter assay", "settings": "100 or 500 ng/ml WNT5A, 3 days", "description": "For TOPFLASH reporter assay, 80,000 EPs were transfected with 0.5 μg of TOPFLASH (Addgene #12456) or FOPFLASH (Addgene #12457) from Dr. Randall Moon, together with 0.25 μg pRLTK using Lipofectamine 2000 (Invitrogen) for 48h. Cells were then treated with CHIR99021 (as positive control), DMSO (mock control) or WNT5A for 3 days before collecting the samples. Luciferase assay was performed using Dual luciferase assay system (Promega) which Luciferase and Renilla signal were measured by TD20/20 Luminometer (Turner designs)."}, "[5]": {"system": "3D-EPs", "experiment": "WNT5A treatment in 3D SC-β cell differentiation protocol (Pagliuca et al., 2014)", "settings": "4 days of treatment, compared to INS upregulation at 12-day in original protocol", "description": "SC-β cells were generated using the protocol as previously described (Pagliuca et al., 2014). WNT5A were introduced into the differentiation from EP stage (EN in the original paper) together with T3, ALK5i in CMRL media for the first two days and then change into T3, ALK5i in CMRL media from the third day. Samples were collected at the 4th day and 12th day counting from EP stage and were fixed with 4% PFA and thrice washed with PBS for 10 min. For whole-mount staining, samples were first blocked with 5% donkey serum in PBST overnight and incubated with antibodies overnight as described above."}}, "data": [{"molecule": "WNT5A: secreted growth factor from the human pancreatic niche (R&D), used at 100 or 500 ng/ml (protein) IIGAQPLCSQLAGLSQGQKKLCHLYQDHMQYIGEGAKTGIKECQYQFRHRRWNCSTVDNTSVFGRVMQIGSRETAFTYAVSAAGVVNAMSRACREGELSTCGCSRAARPKDLPRDWLWGGCGDNIDYGYRFAKEFVDARERERIHAKGSYESARILMNLHNNEAGRRTVYNLADVACKCHGVSGSCSLKTCWLQLADFRKVGDALKEKYDSAAAMRLNSRGKLVQVNSRFNSPTTQDLVYIDPSPDYCVRNESTGSLGTQGRLCNKTSEGMDGCELMCCGRGYDQFKTVQTERCHCKFHWCCYVKCKKCTEIVDQFVCK", "values": [{"measurement": "cell mobility in scratch assays (in words)", "setting": "[1]", "value": "no increase in cell mobility"}, {"measurement": "number of INS+ cells", "setting": "[2]; 100 ng/ml of WNT5A (30% in B27)", "value": 39, "unit": "%"}, {"measurement": "number of INS+ cells", "setting": "[2]; 500 ng/ml WNT5A (30% in B27)", "value": 60, "unit": "%"}, {"measurement": "decrease in the number of GCG+ cells", "setting": "[2]; 3-day EP treatment, vs untreated control", "value": 3, "unit": "fold"}, {"measurement": "average increase in number of cells positive for all test markers", "setting": "[2]; 3 days treatment of EPs", "value": 5, "unit": "fold"}, {"measurement": "numbers of ISL1-eGFP, CHGA+, INS+ and C-peptide+ cells over untreated controls (in words)", "setting": "[2]; 3 days treatment of EPs", "value": "increased"}, {"measurement": "number of INS+ cells among all factors and combinations tested (in words)", "setting": "[2]; WNT5A in different combinations at 500 ng/ml, 3 days", "value": "consistently and most significantly increased"}, {"measurement": "fold increase in number of ins+ cell generate from hESCs", "setting": "[2]; growth factors alone or in combination", "value": 6, "unit": "fold"}, {"measurement": "Smad activity (in words)", "setting": "[3]", "value": "decreases"}, {"measurement": "activity of β-catenin-dependent pathway, TOPFLASH (in words)", "setting": "[4]", "value": "did not significantly activate or antagonize"}, {"measurement": "number of INS+ cells in independent 3D protocol (in words)", "setting": "[5]", "value": "increasing the number of INS+ cells"}]}]}
